This is an account of results in the Immune Epitope Database (IEDB).

A word on the IC50: it is the midpoint of a concentration-inhibition curve. In general, Kd refers to a measure of binding affinity in units of concentration.

The target of experiment [1] is HLA-A*01:01. The experiment in a line: IEDB peptide-MHC binding, purified MHC/competitive/fluorescence; ≥ and ≤ were set here for values at or beyond the usual limits of such assays.
The target of experiment [2] is HLA-B*07:02. Described as above.
For experiment [3], the target named is HLA-B*07:02. Put plainly: IEDB peptide-MHC binding, purified MHC/competitive/fluorescence; filed as Kd, often an IC50 or EC50 that approximates it; ≥ and ≤ were set here for values at or beyond the usual limits of such assays.
Experiment [4] has as its target HLA-B*15:01. The experiment is described as above. The note with it: source organism: Shigella flexneri 2a str. 301.
Experiment [5] has as its target HLA-B*35:01. The experiment is described as above. To be noted: source organism: Shigella flexneri 2a str. 301.
The target in experiment [6] is HLA-A*26:03. Put plainly: IEDB peptide-MHC binding, purified MHC/direct/fluorescence; filed as Kd, often an IC50 or EC50 that approximates it; ≥ and ≤ were set here for values at or beyond the usual limits of such assays. To be noted: source organism: Cryptosporidium parvum Iowa II.
Experiment [7] has as its target HLA-B*08:01. Described as above. The note with it: source organism: Bacillus anthracis str. Sterne.
Experiment [8] addresses HLA-B*08:02. Described as above. To be noted: source organism: Bacillus anthracis str. Sterne.
For experiment [9], the target named is HLA-C*06:02. Described as above.
The target of experiment [10] is HLA-C*14:02. The experiment is described as above.
In experiment [11] the target is HLA-C*15:02. The experiment is described as above.
Experiment [12] has as its target HLA-B*15:42. Put plainly: IEDB peptide-MHC binding, purified MHC/competitive/fluorescence; filed as Kd, often an IC50 or EC50 that approximates it; ≥ and ≤ were set here for values at or beyond the usual limits of such assays.
In experiment [13] the target is HLA-B*27:20. Described as above. To be noted: source organism: Bacillus anthracis str. A2012.
Experiment [14] concerns the target HLA-B*45:06. Described as above.
Experiment [15] deals with HLA-B*83:01. The experiment is described as above.
Experiment [16] has as its target HLA-A*26:02. Put plainly: IEDB peptide-MHC binding, purified MHC/direct/fluorescence; filed as Kd, often an IC50 or EC50 that approximates it; ≥ and ≤ were set here for values at or beyond the usual limits of such assays. The note with it: source organism: Geobacillus sp. WCH70.
Experiment [17] has as its target HLA-C*12:03. The experiment is described as above.
Experiment [18] concerns the target HLA-B*48:01. The experiment in a line: IEDB peptide-MHC binding, purified MHC/competitive/fluorescence; filed as Kd, often an IC50 or EC50 that approximates it; ≥ and ≤ were set here for values at or beyond the usual limits of such assays.
The target in experiment [19] is HLA-C*03:03. The experiment in a line: IEDB peptide-MHC binding, purified MHC/direct/fluorescence; filed as Kd, often an IC50 or EC50 that approximates it; ≥ and ≤ were set here for values at or beyond the usual limits of such assays.
Experiment [20] concerns the target HLA-A*80:01. The description is as above.
Experiment [21] concerns the target HLA-B*57:01. The experiment in a line: IEDB peptide-MHC binding, purified MHC/competitive/radioactivity; filed as Kd, often an IC50 or EC50 that approximates it; ≥ and ≤ were set here for values at or beyond the usual limits of such assays. The note with it: source organism: Dengue virus 1 Brazil/97-11/1997.
Experiment [22] deals with HLA-A*03:01. The experiment in a line: IEDB peptide-MHC binding, purified MHC/competitive/fluorescence; filed as Kd, often an IC50 or EC50 that approximates it; ≥ and ≤ were set here for values at or beyond the usual limits of such assays. To be noted: source organism: Toxoplasma gondii.
The target in experiment [23] is HLA-A*32:15. The description is as above. To be noted: source organism: Toxoplasma gondii.
The target of experiment [24] is HLA-A*68:23. Described as above. To be noted: source organism: Toxoplasma gondii.
Experiment [25] concerns the target HLA-A*01:01. Put plainly: IEDB peptide-MHC binding, purified MHC/direct/fluorescence; filed as Kd, often an IC50 or EC50 that approximates it; ≥ and ≤ were set here for values at or beyond the usual limits of such assays.
Experiment [26] has as its target HLA-A*02:11. Described as above. To be noted: source organism: dengue virus type 1.
Experiment [27] addresses HLA-A*02:12. The experiment is described as above. The note with it: source organism: dengue virus type 1.
Experiment [28] addresses HLA-A*02:19. The description is as above. To be noted: source organism: dengue virus type 1.
Experiment [29] addresses HLA-C*08:02. The experiment is described as above.
In experiment [30] the target is HLA-A*02:03. Put plainly: IEDB peptide-MHC binding, purified MHC/competitive/radioactivity; filed as Kd, often an IC50 or EC50 that approximates it; ≥ and ≤ were set here for values at or beyond the usual limits of such assays. To be noted: source organism: Dengue virus 1 Brazil/97-11/1997.
Experiment [31] concerns the target HLA-A*02:17. Described as above. To be noted: source organism: Dengue virus 1 Singapore/S275/1990.
Experiment [32] deals with HLA-A*24:02. The experiment is described as above. The note with it: source organism: Dengue virus 1 Brazil/97-11/1997.
The target in experiment [33] is HLA-C*07:02. Put plainly: IEDB peptide-MHC binding, purified MHC/direct/fluorescence; filed as Kd, often an IC50 or EC50 that approximates it; ≥ and ≤ were set here for values at or beyond the usual limits of such assays. The note with it: source organism: Mycobacterium tuberculosis str. Haarlem.
[34] abbreviates: source organism: Zaire ebolavirus.
Where [35] appears, read: source organism: Bacillus anthracis str. A2012.
[36] abbreviates: source organism: Listeria monocytogenes EGD-e.
Setting [37] is: source organism: Cryptosporidium parvum Iowa II.
The mark [38] stands for this setting: source organism: dengue virus type 1.
Where [39] appears, read: source organism: Toxoplasma gondii.
Where [40] appears, read: source organism: Vibrio parahaemolyticus.
Setting [41] is: source organism: West Nile virus.
The mark [42] stands for this setting: source organism: Mycobacterium tuberculosis str. Haarlem.

For RGDLETLGY, the IC50 in experiment [1] (source organism: Vaccinia virus WR) came to 9250 nM.

Consider TSDGKEYTY, for which the IC50 in [1] (setting [34]) was 3450 nM.

As to GPCPGDYAF, the IC50 in experiment [2] (source organism: Sudan ebolavirus) is at least 722000 nM.

For the sequence KPVGWAMSF, the Kd in experiment [3] (source organism: Shigella flexneri 2a str. 301) was determined as 11.9 nM; in experiment [4] it was 4000 nM; in [5], 0.4 nM.

With ETRYSWAIL, in [6], the Kd is 454 nM.

On to YMKERFTVL, for which the Kd in [7] was 15 nM; in experiment [8], 282 nM; in [9] (setting [35]), 149 nM; in experiment [10] (setting [35]), 173 nM; in experiment [11] (setting [35]), 1500 nM; in experiment [12] (setting [35]), at least 5000 nM. In addition, the Kd is 22.6 nM in experiment [13], at least 5000 nM in experiment [14] (setting [35]) and at least 5000 nM in [15] (setting [35]).

FTWPWMKLF returned a Kd in [16] of 469 nM.

Take RMMGKTNPL: the Kd in experiment [9] (setting [36]) was at least 20000 nM; in [17] (setting [36]), 156 nM; in experiment [10] (setting [36]), at most 1 nM; in experiment [11] (setting [36]) it was 16 nM; in experiment [18] (setting [36]), 97.4 nM.

As to WMYNIQPYL, the Kd was 83 nM in experiment [19] (setting [37]), 454 nM in experiment [17] (setting [37]) and 34.7 nM in experiment [18] (setting [37]).

As for ESDPEGALW, the figures for the Kd in experiment [20] (setting [38]) and in experiment [21] were at least 20000 nM and 391 nM, respectively.

For APDGIRGFP, the IC50 in experiment [2] (setting [34]) amounted to 23400 nM. This lies in the double-digit micromolar range.

In the case of MPRQKIIGPL, the Kd in [3] (source organism: Influenza A virus (A/Swine/Colorado/23619/99(H3N2))) was found to be 6.6 nM.

On to MTMLIKAFK, for which the Kd was 7.7 nM in experiment [22]; 194 nM in [23]; 4.5 nM in experiment [24]; at least 5000 nM in experiment [12] (setting [39]); at least 5000 nM in experiment [14] (setting [39]); at least 5000 nM in [15] (setting [39]).

As to MTPGRGLSK, the Kd in experiment [25] (setting [40]) and in [20] (setting [40]) was at least 20000 nM throughout.

PDDGSYGEY returned an IC50 in experiment [1] (setting [34]) of at least 277000 nM.

In the case of MSPHRVPNY, the Kd in [25] (setting [41]) and in experiment [20] (setting [41]) was at least 20000 nM each time.

As for YMPSVVETL, the Kd in experiment [26] was at most 1 nM; in [27] it was 9 nM; in experiment [28] it was 36 nM; in experiment [29] (setting [38]) it was at least 20000 nM; in experiment [30], 15 nM; in [31], 14.6 nM. The Kd in experiment [32] came out at 1010 nM.

As for YVYPDNLPV, the figures for the dissociation constant (Kd) in experiment [19] (setting [42]), in [33] and in [29] (setting [42]) were 2 nM, 2170 nM and 78 nM, respectively.
